Patent publication US20160053242A1, “THERMOSTABLE NUCLEASE” (priority 2013, published 2016)

Assays:
[1] = Active two-dimensional gel electrophoresis (isoelectric point); assay type: physicochemical; conditions: partially purified crude extracts of CCRI-10035 heated at 80° C. for 1 h; 2D gel
Procedure: Protein concentration was measured by the method of Bradford. An 18 cm Immobiline™ pH 4-7 DryStrip was applied. Proteins (200 μg) were diluted in T8 buffer (7 M Urea, 3% W/V CHAPS; 3-[(3-cholamidopropyl)dimethylammonio]-1-propanesulfonate, 20 mM DTT; dithiothreitol, 5 mM TCEP; tris(2-carboxyethyl)phosphine hydrochloride) and precipitated with 2-D clean-up kit (Amersham Biosciences) to remove substances interfering with isoelectric focusing (IEF) such as detergents, salts, lipids, phenolic and nucleic acids. IEF was carried out using IPTGhor IEF system (Amersham Biosciences) for the first dimension as recommended by the manufacturer. After first dimension, the strip was cut 5 cm from (+) terminal and 7 cm from (−) terminal. The cut strip was linked with agarose onto 12% SDS-PAGE containing 20 μg/ml dsDNA calf thymus DNA (Calbiochem). Markers and proteins were prepared according to the manufacturer's instructions on Whatman paper and run alongside the cut strip. After electrophoresis, the gel was rinsed with water, and placed into the gel incubation buffer (20 mM Tris-HCl, pH 9.08, 20 mM MgCl2). Two hours later, the gel was rinsed again and incubated in the gel incubation buffer overnight at 37° C. […] Trypsin fragmentation results were analyzed using Mascot software (Matrix Science) for peptide identification. […]

calf thymus ssDNA = test: Assay of nuclease activity, substrate specificity: ssDNA; conditions: no metal ion added
Procedure: (§1) Standard (20 μl) reaction mixture contained 2 μg of calf thymus dsDNA in activity buffer (20 mM Tris-HCl, 20 mM MgCl2 at pH 7.24). When required, several concentrations of alternative divalent cations, BaCl2, CaCl2, NaCl, MnSO4, NiSO4, MgCl2, CoCl2, KCl, were tested and the effects of other compounds (0.1, 0.25, 0.5 and 1 mg/ml BSA, 0.05, 0.1, 0.5 and 1 mM dNTPs, 2, 5, 10, 20, 50, 100 mM EDTA, 5, 15, 30, 50% glycerol, 0.1, 0.25, 0.5 and 1% SDS, and 1, 2, 3, 4, 5, 6, 7 and 8 M urea) were investigated. […] In all cases, the reaction was started by the addition of 2 μl of nickel column purified enzyme, and terminated by adding 4 μl of agarose gel loading buffer (0.1 M EDTA, pH 8.0, 0.05% bromophenol blue, 50% glycerol). Nuclease activity was evaluated by assessing DNA degradation level on gel electrophoresis (1.2% agarose, with 0.25 μg/ml of ethidium bromide, at 170 V for 30 min, in Tris-borate EDTA buffer).

[2] = tested on: plasmid DNA pET-24a(+) (closed circular double stranded); test: Assay of nuclease activity, substrate specificity: plasmid DNA; conditions: no metal ion added
Procedure: as §1

calf thymus dsDNA = test: Assay of nuclease activity, DNA degradation level on agarose gel
Procedure: as §1

[3] = digestion of calf thymus dsDNA at 37° C.

B1: Nucyep: thermostable non-specific nuclease from Yersinia enterocolitica subsp. palearctica; 283-amino-acid protein, SEQ ID NO. 6 (protein)
chain: MKFNLIKLLPVLLLTACTTTDHSMSAPKTILSAPTVTEQNLPAAAIDNCLVGCPTGGSDQTVIRDVYTLNNNSHTKFANWVAYKVTKSSQASNHPRKWAQDPDLPDSDTLAPADYTGANQKLAVDRGHQAPLSLLAGNEDSQALNYLSNITPQKAALNQGAWVRLEDQERNLANRPDVTAVYSVTGPLFERHIATLPAKPTVEIPSGYWKIIFIGTSPDKGQYAAFLMDQNTAKSANFCDYQVNVDTIEAKTNPQLTIWSNLPADVAQIIKSQKGTLAQTIGCD
modifications: Yersinia enterocolitica sub. paleartica
**Q.** Which results are given for B1?
**A.** Isoelectric point of the spot with heat-stable nuclease activity [1]: about 5.2; Nuclease activity on ssDNA without addition of metal ions (calf thymus ssDNA): able to degrade; Nuclease activity on plasmid (circular ds) DNA without addition of metal ions [2]: but not the circular dsDNA or RNA; Effect of 2 mM Ca2+ on nuclease activity (calf thymus dsDNA; 2 mM Ca2+): inhibited; Effect of 2 mM CuSO4 on nuclease activity (calf thymus dsDNA; 2 mM CuSO4): inhibited; Effect of 2 mM ZnCl2 on nuclease activity (calf thymus dsDNA; 2 mM ZnCl2): inhibited; Effect of 0.1% SDS on nuclease activity (calf thymus dsDNA; 0.1% SDS): inhibited; Effect of 100 mM EDTA on nuclease activity (calf thymus dsDNA; EDTA 100 mM): inhibited; Activity left after heating at 80° C. for 60 minutes (1 h) (calf thymus dsDNA; [3]): ~5%; Activity left after heating at 100° C. for 20 minutes (calf thymus dsDNA; [3]): ~5%; Optimum temperature (calf thymus dsDNA; examined within 0 to 100° C.): about 35 °C; Activity after exposure to longer times at 100° C. (calf thymus dsDNA; longer than 20 minutes at 100° C., compared to undigested controls): no remaining nuclease activity; Nuclease activity on dsDNA without addition of metal ions (calf thymus dsDNA; no metal ion added, linear dsDNA): able to degrade
